Results reported in US20230184767.

Test system: infectious human adenovirus 2 (HAdV-2, whole virus) (Human adenovirus 2)
Test: ELONA
Details: SELEX buffer 20 mM Tris, 100 mM NaCl, 2.5 mM MgCl2, pH 7.2, room temperature

Work on “GGCTGCAGCTGAAGCACTGGTTTTGAGTCAAACCCAGACGATGGA [Apt-HAdV]” yielded a Kd of 900 pM.
